The target of assay [1] is human CXCR4 (Chemokine receptor 4) (human) (UniProt P61073). As to the kind of experiment: FACS on MDA-MB-231 cells (endogenous CXCR4), antibody at 10 ug/ml.
The target is the same in assay [2]. As to the kind of experiment: FACS on Hela cells (endogenous CXCR4), antibody at 10 ug/ml.
For assay [3] the target is unchanged. As to the kind of experiment: FACS on U937 cells (endogenous CXCR4), antibody at 10 ug/ml.

Sequence of UniProt P61073 (P61073 whole entry): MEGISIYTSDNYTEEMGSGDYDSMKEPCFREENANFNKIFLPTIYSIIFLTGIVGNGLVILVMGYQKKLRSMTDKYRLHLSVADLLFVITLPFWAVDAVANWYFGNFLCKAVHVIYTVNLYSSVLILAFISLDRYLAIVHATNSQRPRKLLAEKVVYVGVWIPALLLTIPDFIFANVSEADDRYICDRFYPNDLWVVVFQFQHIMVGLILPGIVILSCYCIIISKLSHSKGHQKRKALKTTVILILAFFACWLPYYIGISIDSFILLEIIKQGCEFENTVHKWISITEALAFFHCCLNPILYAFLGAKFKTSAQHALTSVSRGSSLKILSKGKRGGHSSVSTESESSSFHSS

B1: anti-CXCR4 I-3859 monoclonal antibody (Mab) (antibody, V domains shown)
VH: QVQLKESGPGLVAPSQSLSITCTVSGFSLTDYGVYWVRQPPGKGLEWLGMIWGDGTTDYNSALKSRLSISKDNSKSQVFLKMNTLQTDDTARYYCARGRQFGFDYWGQGTTLTVSS
VL: DIVMSQSPSSLAVSAGEKVTMRCKSSQSLFNSRTRKNYLAWYQQKPGQSPKLLIFWASIRESGVPDRFTGSGSGTDFTLTISSVQAEDLAVYYCKQSYNLRTFGGGTKLEIK
Turning to B1, the MFI came to 59 MFI in assay [1], 633 MFI in assay [2] and 246 MFI in assay [3].

The values are drawn from patent US20140170677A1.
